From the DeepSol protein solubility set

test: soluble on expression in E. coli; label from the status in PepcDB or PDB records

Sequence	soluble on expression in E. coli
MSLTVSARRADAQRNRELILDAAREQLREPGELKMNAVAKACGIGQGTLYRHFPTREDLLVEVYRHDVEELVAAASDMVSTRSPVEALAGWFERVAAYARVKNHVFAAVEAATWRDLAAHSLGPIGEAVELLLAAGRAEGSMRADVEARDVIVLIGWLSRLDDTELDERGPRLLSVLLDGLRTPQGEGHHHHHH	soluble
MSEGLSFVIQRHQARRLHYDFRLEIDGVLVSWAVPKGPSRDPSVKRLAVHVEDHPLEYGGFSGDIPKGQYGAGHVDIWDSGVWIPRGDPRQGLRRGKLHFALRGRRLAGDWVLVRMSGEQDQWLLRKEDDEALEHHHHHH	not soluble
MGSDKIHHHHHHMCRWLAYSGRSVPLEAVLFQPEHSLIDQSLNARLGHTTTNGDGFGVGWYGRHSEVPFRYRCLHPAWSDTNLRETARAVRAPLFVAHVRAATGTPTQETNCHPFRFGRWLFVHNGLIREFPLLRRDLMMAVSPQLFRWIEGSTDSEIMFFLALTFGLERDPRAALEQMVGLIEEVGHRYDVEHPINMTVCVTDGQQIVAVRYSSEADSRSLFHSTSFRQLRELYPDDPRIIAAGDDAFLVLSEPLIDVQGVWQEIPEATILVGRAGVIDYSRFTPRMPELSS	not soluble
MSLKFVGLVGSNYDQSYNRKLLEFIRRYFKLKFELEVLEIDEVPMFNQDEKWDESFQLRYLYNKITRADGVIIATPEHNHTISASLKSVLEWLSYEVHPFENKPVMIVGASYYDQGTSRAQVHLRKILDAPGVNAYTLPGNEFLLGKAKEAFDNNGNITNEGTVKFLETCLDNFVKYVGVVSKLKKPKPIESEDLDCGKPIATTITEVDPDDPEWVEKVAAFTGAVSGDTYVKLDHGILTVNQIDMFLKAMPFELTYADDNNQFLYYNNAHQDPDTMFAKRVPPQSGSRMSTVHGSLPPARMKNVEWVIGTLRNGNQEYVRTIVPGSPAGVINTHNYQAMYYPDGSYAGINEIVFNFQPWLDWYLKETGQRLVGGSGPFAPAAGGHGDADATSGASDSGDAGGHGGDADATAGASYEGHHHHHH	soluble
MAHHHHHHMSNQGDFNTYIYIPVKCNESIKKRCELCFDVLFKLIEMKHKECYNKSKEKNLLCHNDINKGEIHKHIYYQLYKLNEHIKENNIEKDFKEPLHITISGSLNLKRYMINSFINKIKEELKNQNSFYLFFRNEVDLYKSQKNTKYFCSYTVKEDQQELYLNTLKEKINKILNEFDLKDTHLNRIYHLSLAYTNINLDVLLEKENKKCVEEETFFWPNINELILNKDIKENRLDDLYIYVNCIHIRIGYKLYKIPFKSFDDNLNVSDSYDSYMSSTDE	not soluble
MSLAMALFQSAPHSLCILRLSAIGDVCNTIAAVQAIQRQWPQTRITWVTGKLEAELIQSLPDIQVIVFDKKLGWRAYTQLWQQLKSERFDALLHMQYAFRASIATLGIKARYKLGFDAARSQDFQTWFTNVKVPSPDKMHVLDGLLAFVEHLGIRDIEPKWSLTCQPDDLTWAEAQFQPEQPRLVVVPGASKAYKNWTAEGYAAVIEHAQQQGWQVILAGSPAQVERDLAAQVEQALAHPVLNLVGKSTLQQMLALLAKADLVIAPDTGPAHMANAMHTPIIGLYAHHNPERTGPYHYRHYVVSAYQEALLAETGKMPQQVDWRTRVKDPNAMQRITAQQVIAMFERAAADIMATQVNDEGHHHHHH	soluble
MGSGKPPLILASGSPRRKALLEALGYPIRVAVPGVEEEGLPLPPKALAQALARRKGEAVQGEWVLAADTVVDLDGEVLGKPKDPEENRLFLRRLSGRLHLVHTAFYLRTPKEVVEEVHTARVFFRPLSEEEIAWYVGSGEGLDKAGGYGAQGLGMALLERVEGDFYTVVGLPVSRVFALLWARGFRP	soluble
MIERRKIAVIGSGQIGGNIAYIVGKDNLADVVLFDIAEGIPQGKALDITHSMVMFGSTSKVIGTNDYADISGSDVVIITASIPGRPKDDRSELLFGNARILDSVAEGVKKYCPNAFVICITNPLDVMVSHFQKVSGLPHNKVCGMAGVLDSSRFRTFIAQHFGVNASDVSANVIGGHGDGMVPATSSVSVGGVPLSSFIKQGLITQEQIDEIVCHTRIAWKEVADNLKTGTAYFAPAAAAVKMAEAYLKDKKAVVPCSAFCSNHYGVKGIYMGVPTIIGKNGVEDILELDLTPLEQKLLGESINEVNTISKVLDNAPAAGA	soluble
MREMKKLVKIATSLTLMGGIFVSANGVSANTDVTQKSSPNIMIEFDDVTTDHWAYDEITNLVYHRIMYGYGNGKFGTEDNITREQAAAVLHRALGLKRSVFDANPYGDISGKSTMFPYEILHLTNLGIFKGDENGNFRPKDTLTRAELAQILTKAYELKAKSPHTFTDIPEKHWARDAISALQSNKVAVGTGDGKFEPEMLVTRGQFAKFLQRSIDNSPGKME	not soluble
MELKILVTGGNVFVPGRLNAHFSTVVYLEHKDRRIIIDPGNLSSMDELEEKFSELGISPDDITDVLFTHVHLDHIFNSVLFENATFYVHEVYKTKNYLSFGTIVGRIYSKVISSWKNVVLLKGEESLFDEKVKVFHTPWHAREHLSFLLDTENAGRVLITGDITPNRLSYYDIIKGYGSVQVKNFLDRVGRIDLLVFPHDAPLKPEVKK	not soluble
MTPAIDAHVRLDTHPTHPSAVQAHLTGTQARVASMALEAAGWSAAATGVLVLARIDHEEPYWAADAAQHLTAAGITVEITPRLQEAIDEEWTWPNYPMTWCTRSEIREVSNQAQKIHDDIRNGHLLIHAHAHDGHTTVAVGTYLHPGGKSVYLHGEDHLRQVADTFDSPAEALVAFEKVHAAEMRPGPAPLTDTERAAIAARSVFDATTAKPEPPRREPEAVPVYLADAGDHDALLDSFLDTHGEFEKWRTWSDETTHAIHESQTLRIERVHETQARETAWTVAAYETPVSDRMWHLTATDATPAPVLLNLLNHLADGDGWDTVIGVPVGEKTVTTATQPLTEAGWKHTLTGHGIRWTSPDGQASVRFDPLTAQAPQNPATWTIWAGPGPDRPTWAITASSHTPSSLLADLSESLAHETGTRQPRPGREHRTRLAASAPAIPAVTSDRPASRSRLEHHHHHH	soluble
MQEGYREYRDIHARLNLPLLETGALVAAWSDEDLARLPAIVEQAHGNGVDDVRQVGRDEVLALEPQLAGNVLGAVRVPGEHLVDPWSAPLAYLQQALAHGAEACFDVEVLDGAFDGGEWLLHTRRGDLRASQVINCAGLFGDQLEQRLLGAASFAIHPRKGQFVVFDKAAAALLRHILLPVPNERTKGVVFTRTVFGNLLAGPTAEEQDDREQARVDSDTLQRLIDAAVERIPGLRGMPVTATYAGLRPASEKKEYRIRQVDGRNWISVGGIRSTGLTAALGIARHVYRLYQGERFHEAVREPLWPQVPNLAEHLPRDWQRPGYDEIVCHCEMVTRREILAALEGPLPAGDFGGLKRRTRACMGRCQGFYCNARVAELSAGRLAQPLATGSCHEHH	not soluble
MGSDKIHHHHHHMRITIVTIFPEMVEVIKKYGVIARAVERGIVEINVENLRDYTTDRHRTVDDYQYGGGYGMVMKPEPFFRFYESYVEKYGKPYVILTSPQGRIFNYKIAEELSKKDDIVIFCGRYEGIDERVMSIVDDEISIGDYILTGGELPAMVITDAVVRLVPGVVERESVERESFHQGLLDHPVYTRPYEYKGMKVPDVLLSGDHEKVELWRRKESIKKTLAKRPDLFLAKELDEMDKLAIIELFRELMEKC	not soluble
MREYKLVVLGSGGVGKSALTVQFVQGIFVDEYDPTIEDSYRKQVEVDCQQCMLEILDTAGTEQFTAMRDLYMKNGQGFALVYSITAQSTFNDLQDLREQILRVKDTEDVPMILVGNKCDLEDERVVGKEQGQNLARQWCNCAFLESSAKSKINVNEIFYDLVRQINR	soluble
MSLTPKKISSISLEVTGSIVSIGLAVYKDIFEYINLVTHKFIYFQDLERKNIELQLEIARLQHLQSEVESVKAENIALKDLLMIAEEEEFEYLTTKLLSVSFNPFSRTALISAGKKQGIEPDQIVVNSGKLVGKIIEVSNNYSKVMLISDVNSRIPIKANSSREQGILAGNNNNSKILYLPNNHLVQKDEEIVTSGHGNIYPAGILVGYVSRVTENDVIVNLAADLSKMEFVQILLPKQEGHHHHHH	soluble
MSLSKSMARARNRCLPMNFRAEDLASGILRERVKVGASLADVDPMNIDKSVRFDSIGGLSHHIHALKEMVVFPLLYPEIFEKFKIQPPRGCLFYGPPGTGKTLVARALANECSQGDKKVAFFMRKGADCLSKWVGESERQLRLLFDQAYLMRPSIIFFDEIDGLAPVRSSRQDQIHSSIVSTLLALMDGLDNRGEIVVIGATNRLDSIDPALRRPGRFDREFLFNLPDQKARKHILQIHTRDWNPKLSDAFLGELAEKCVGYCGADIKALCTEAALIALRRRYPQIYASSHKLQLDVSSIVLSAQDFYHAMQNIVPASQRAVMSSGHALSPIIRPLLERSFNNILAVLQKVFPHAEISQSDKKEDIETLILEDSEDENALSIFETNCHSGSPKKQSSSAAIHKPYLHFTMSPYHQPTSYRPRLLLSGERGSGQTSHLAPALLHTLERFSVHRLDLPALYSVSAKTPEESCAQIFREARRTVPSIVYMPHIGDWWEAVSETVRATFLTLLQDIPSFSPIFLLSTSETMYSELPEEVKCIFRIQYEEVLYIQRPIEEDRRKFFQELILNQASMAPPRRKHAALCAMEVLPLALPSPPREGHHHHHH	not soluble
MAHMNLLSVTTGDGGLSRYLEEVRRFPMLEPQEEYMLAQRYRKHNDLKAAHKLVTSHLRLVAKIAVGYRGYGLPIGEVISEGNVGLMKAVKRFEPERGFRLATYAIWWIKASIQEYVLRSWSLVKMGTTANQKRLFFNLRKLKSRLQALDNGDLNAEQVKEIAIQLNVTEDEVVSMNRRLGGDTSLNAPLRTKEGENSEWQDWLVDDSNNQEQTLIEQNELENRRSMLTNALDNLNEREKRIFKARRLSDIPLTLEELSSEFNISRERVRQIEMRAFEKIQNSIKASALSQNQV	not soluble
VRRLLIVHHTPSPHMQEMFEAVVSGATDPEIEGVEVVRRPALTVSPIEMLEADGYLLGTPANLGYISGALKHAFDVCYYLCLDTTRGRSFGAYIHGNEGTEGAERAVDAITTGLGWVQAAETVVVMGKPSKADIEACWNLGATVAAQLMG	soluble
MVSAPPTLQDQAFRSLVRNEVLTVSDAECLIREFFPPLFKEASTQKKPKTIMILVEHWPYPCLHVGLLIDKPNFQIFQAILDGVDTWLKRKYRPRMGRLKKVDFRDAQHHASLDMQDEREGRDYLVGTLPKKQIVEDHSRTRKERLKLFHDLSFMSSLHEDKHQTLLLEWAKERTSFLHLCCEKLEIGAVEVSKVRNVLKFLQPELIKELKLNTVGNLSKLAKFVPFIRKMRNLQKLMLVRTFGTRTFTQEEKQNISKIISLFCKLSCLRHLTIDDVYFLTDQMKELLRCLEAPLVSLKITLCQLSQSDLESFAQRWNYSQLKHLCLRGVTLTNLDVTPLRDFLKRVAANLQTLDLEDCRMDDSHFRTLLPALIKCTQLTSINLYDNDISEDVLENFLHRTTNLSQLTTEMYPAPSEVYNESNYVIVEIFIQICSELMNKLMEVRQANSVCFGSSSCYDCDNRYLYEDDGDVTLCLCQE	not soluble
